# Primed or numbered codes have the meaning given here. Where no end group is shown, it is not given here. [ ]: non-standard residue; d: D form. FITC′ = fluorescein isothiocyanate label at the N-terminus; pS = N[C@@H](COP(=O)(O)O)C(=O)O
# Experiments:
# 14-3-3γ-R57C-nLuc [1] = target: T1, 14-3-3γ-R57C-nLuc (human, UniProt P61981 2-247, R57C); experiment: degarelix 1 uM; apparent, Bmax set to wild-type
# T1 sequence: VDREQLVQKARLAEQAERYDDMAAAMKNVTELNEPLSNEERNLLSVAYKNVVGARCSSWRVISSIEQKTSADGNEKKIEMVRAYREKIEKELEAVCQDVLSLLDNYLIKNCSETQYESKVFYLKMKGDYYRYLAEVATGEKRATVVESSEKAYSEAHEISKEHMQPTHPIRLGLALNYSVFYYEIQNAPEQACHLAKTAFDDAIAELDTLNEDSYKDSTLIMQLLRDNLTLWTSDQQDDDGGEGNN
# 14-3-3γ-R57C-nLuc [2] = target: T1, 14-3-3γ-R57C-nLuc; experiment: nafamostat 25 uM; apparent, Bmax set to wild-type
# [3] = target: T2, wild-type 14-3-3γ-nLuc (His6-14-3-3γ-nLuc) (human, UniProt P61981 2-247); experiment: FRET or BRET; in vitro BRET: 1 nM recombinant nLuc or 14-3-3γ-nLuc with increasing FITC-phosphopeptide in 20 mM Tris-HCl, 150 mM NaCl, 1 mg/mL BSA, 0.1% Tween 20; 250 nM furimazine; net BRET after subtraction of nLuc background; Kd from y = Bmax*x/(Kd + x); details: both partners purified
# T2 construct: Size ~47.5 kDa as printed; The Nluc forward primer encodes a short linker (GGGGTRS, read from the primer) between 14-3-3γ and nLuc; also called wt 14-3-3γ-nLuc; 14-3-3γ-nLuc wt; source: E. coli Rosetta(DE3)pLysS, purified (Ni-NTA); not shown: nLuc (nanoluciferase), C-terminal, kept
# T2 sequence (looked up): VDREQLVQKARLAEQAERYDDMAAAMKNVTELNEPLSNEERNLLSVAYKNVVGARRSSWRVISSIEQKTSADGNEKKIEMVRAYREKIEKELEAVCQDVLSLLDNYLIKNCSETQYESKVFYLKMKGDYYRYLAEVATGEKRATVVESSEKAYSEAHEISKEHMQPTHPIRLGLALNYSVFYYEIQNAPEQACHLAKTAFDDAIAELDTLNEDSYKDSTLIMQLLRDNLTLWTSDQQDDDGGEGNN
# [4] = target: T3, wild-type 14-3-3γ-nLuc (His6-14-3-3γ-nLuc) (human, UniProt P61981 2-247); experiment: degarelix 1 uM
# T3 chain: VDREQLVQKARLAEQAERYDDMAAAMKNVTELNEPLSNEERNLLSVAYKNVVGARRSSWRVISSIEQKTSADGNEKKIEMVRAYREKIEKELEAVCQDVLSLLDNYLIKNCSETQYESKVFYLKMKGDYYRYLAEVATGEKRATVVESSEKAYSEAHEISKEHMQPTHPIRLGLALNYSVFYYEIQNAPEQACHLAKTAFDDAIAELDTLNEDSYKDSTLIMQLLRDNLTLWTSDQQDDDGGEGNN
# [5] = target: T3, wild-type 14-3-3γ-nLuc …; experiment: nafamostat 25 uM
# 14-3-3γ-R57C-nLuc [6] = target: T1, 14-3-3γ-R57C-nLuc; experiment: DMSO; apparent, Bmax set to wild-type
# 14-3-3γ-R57C-nLuc [7] = target: T4, 14-3-3γ-R57C-nLuc (human, UniProt P61981 2-247, R57C); experiment: FRET or BRET; in vitro BRET: 1 nM recombinant nLuc or 14-3-3γ-nLuc with increasing FITC-phosphopeptide in 20 mM Tris-HCl, 150 mM NaCl, 1 mg/mL BSA, 0.1% Tween 20; 250 nM furimazine; net BRET after subtraction of nLuc background; Kd from y = Bmax*x/(Kd + x); details: both partners purified
# T4 construct: 14-3-3γ (YWHAG), human, pathogenic patient variant R57C, site-directed mutant of the 14-3-3γ-nLuc plasmid; limits as m8; As m8 with R57C; source: E. coli Rosetta(DE3)pLysS, purified (Ni-NTA); not shown: nLuc (nanoluciferase), C-terminal, kept
# T4 sequence (looked up): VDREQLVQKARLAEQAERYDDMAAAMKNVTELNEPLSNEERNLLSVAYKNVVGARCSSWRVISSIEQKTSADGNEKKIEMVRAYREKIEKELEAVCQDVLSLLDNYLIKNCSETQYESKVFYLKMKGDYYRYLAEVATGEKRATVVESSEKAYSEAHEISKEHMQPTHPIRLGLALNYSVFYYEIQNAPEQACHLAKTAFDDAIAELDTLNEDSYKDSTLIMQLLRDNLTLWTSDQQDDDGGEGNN
# 14-3-3γ-R57G-nLuc = target: T5, 14-3-3γ-R57G-nLuc (human, UniProt P61981 2-247, R57G); experiment: as above; details: both partners purified
# T5 construct: 14-3-3γ (YWHAG), human, pathogenic patient variant R57G, site-directed mutant of the 14-3-3γ-nLuc plasmid; limits as m8; As m8 with R57G; source: E. coli Rosetta(DE3)pLysS, purified (Ni-NTA); not shown: nLuc (nanoluciferase), C-terminal, kept
# T5 sequence (looked up): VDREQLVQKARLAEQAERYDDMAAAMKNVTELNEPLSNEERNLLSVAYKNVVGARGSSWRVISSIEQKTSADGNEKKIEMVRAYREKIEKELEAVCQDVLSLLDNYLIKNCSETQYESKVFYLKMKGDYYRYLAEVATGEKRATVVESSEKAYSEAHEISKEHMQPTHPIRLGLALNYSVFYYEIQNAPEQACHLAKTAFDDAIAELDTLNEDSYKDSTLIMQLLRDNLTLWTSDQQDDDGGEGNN
# [8] = target: T2, wild-type 14-3-3γ-nLuc …; experiment: FRET or BRET; in vitro BRET competition: wt 14-3-3γ-nLuc and FITC-phosphopeptide with increasing doses of R18 peptide (Figure S2D); details: both partners purified
Binder,Kd (14-3-3γ-R57C-nLuc [1]) [nM],Kd (14-3-3γ-R57C-nLuc [2]) [nM],Kd [3] [nM],Kd [4] [nM],Kd [5] [nM],Kd (14-3-3γ-R57C-nLuc [6]) [nM],percent of the phosphopeptide binding reached at the highest peptide concentration (14-3-3γ-R57C-nLuc [7]) [%],percent of the phosphopeptide binding reached at the highest peptide concentration (14-3-3γ-R57G-nLuc) [%],binding result [8]
{FITC′}-MPTPDATTPQAKGFRRAV[pS]ELDAKQAEAIMSPRFIGRRQSLIE (also called phosphopeptide derived from tyrosine hydroxylase (TH); source: synthetic peptide (AbClonal)) [FITC-pTH],22200,5280,84.3,36.2,75,–,–,–,–
"{FITC′}-QRHSN[pS]LGPIFDGSGGGSGIKARAS[pS]SPVILVGTHLD (leucine-rich repeat kinase 2 (LRRK2), human; also called FITC-LRRK2; source: synthetic peptide (AbClonal)) [FITC-ppLRRK2]",25.2,44.1,0.74,0.89,0.8,431,~30,~30,–
PHCVPRDLSWLDLEANMCLP (Not labelled with FITC (only the phosphopeptides were); source: synthetic peptide (AbClonal)) [R18 peptide],–,–,–,–,–,–,–,–,binds
"{FITC′}-FPQSA[pS]LPPYFS (SLP76 (Lymphocyte cytosolic protein 2/LCP2), human; source: synthetic peptide (AbClonal)) [FITC-pSLP76]",–,–,47.5,–,–,–,~30,~30,–
